Laboratory results published in patent US20120121633A1 (published 2012).

Molecular target: T1, ovalbumin (UniProt P01012 2-386)
T1 construct: also called control ovalbumin
T1 sequence: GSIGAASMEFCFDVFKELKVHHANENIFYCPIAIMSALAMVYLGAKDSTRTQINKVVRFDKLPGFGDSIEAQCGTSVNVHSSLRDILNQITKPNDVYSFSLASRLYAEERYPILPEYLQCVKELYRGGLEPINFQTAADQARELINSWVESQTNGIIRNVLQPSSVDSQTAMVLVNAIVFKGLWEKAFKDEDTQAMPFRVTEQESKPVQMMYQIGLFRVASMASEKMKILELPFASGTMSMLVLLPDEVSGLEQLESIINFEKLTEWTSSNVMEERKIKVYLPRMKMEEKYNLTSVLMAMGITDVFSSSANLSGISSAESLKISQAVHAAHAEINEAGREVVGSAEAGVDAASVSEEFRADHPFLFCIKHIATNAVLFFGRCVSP
Experiment: competition ELISA: no inhibition of MAb 2G9 binding to immobilized BSA-E-416-433

B1: IgM clone 2G9 (antibody, V domains shown)
VH: QVQLKQSGPGLVQPSQSLSITCTVSGFSLTSYGVHWVRQSPGKGLEWLGVIWSGGSTDYNAAFISRLSISKDNSKSQVFFKMNSLQANDTAIYYCARNKDYGSSYDYYAMDYWGQGTSVTVSS
VL: DIQMTQTTSSLSASLGDRVTISCRASQDISNYLNWYQQKPDGTVKLLIYYTSRLHSGVPSRFSGSGSGTDYSLTISNLEQEDIATYFCQQGNTLPTFGGGTKLEIKR
notes: also called MAb 2G9; MAb IgM 2G9
**Q.** Does B1 bind?
**A.** no binding
